The values below come from patent JP2018127443A.

The target of this experiment is T1, 変性rFXIII-A (human) (UniProt P00488).
T1 sequence: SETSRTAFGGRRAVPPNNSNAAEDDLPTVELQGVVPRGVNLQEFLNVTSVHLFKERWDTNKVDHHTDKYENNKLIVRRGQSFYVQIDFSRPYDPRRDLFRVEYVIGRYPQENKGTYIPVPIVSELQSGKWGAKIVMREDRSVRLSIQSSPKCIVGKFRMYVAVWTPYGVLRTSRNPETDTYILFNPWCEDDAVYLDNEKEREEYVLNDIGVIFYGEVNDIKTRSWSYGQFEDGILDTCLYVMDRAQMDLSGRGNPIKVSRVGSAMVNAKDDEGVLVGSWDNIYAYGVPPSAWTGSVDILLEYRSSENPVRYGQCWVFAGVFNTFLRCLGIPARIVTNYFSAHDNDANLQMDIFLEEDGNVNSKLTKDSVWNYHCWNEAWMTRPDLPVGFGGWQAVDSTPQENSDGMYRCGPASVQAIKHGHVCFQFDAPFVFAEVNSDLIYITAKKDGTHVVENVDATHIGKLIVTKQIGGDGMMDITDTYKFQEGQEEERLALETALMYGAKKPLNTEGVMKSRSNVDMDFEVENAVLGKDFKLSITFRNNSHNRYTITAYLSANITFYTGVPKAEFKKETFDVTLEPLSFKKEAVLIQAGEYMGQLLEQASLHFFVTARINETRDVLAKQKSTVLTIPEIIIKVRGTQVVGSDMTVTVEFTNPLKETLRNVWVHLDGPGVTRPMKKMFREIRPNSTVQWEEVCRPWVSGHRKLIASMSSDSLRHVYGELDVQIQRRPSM
As to the kind of experiment: solid-phase ELISA: denatured vs native rFXIII-A coated. Background: An ELISA detects its analyte on a solid surface through an enzyme-linked reagent.

B1: ヒト抗FXIII-Aモノクローナル抗体 A75K (antibody, V domains shown)
VH: QVQLVESGGGVVQPGRSLSLSCAASGFNFISYGMHWVRQSPGKGLEWVAVISYDGSKKYYADFVKGRFTISRDNSKNTLFLQMNSLRGDDTAVFYCAKDRGFYGSGSSDYYYVMDVWGQGTTVTVSS
VL: DIQMTQSPSSLSASVGDRVTITCRASQGITNYLAWFQHKPGKAPKSLIYAASTLHRGVSSKFSGSGSGTDFTLTISNLQPEDFATYYCQQYKTYPITFGQGTRLDIK
Regarding B1, the fold change of binding, denatured against native rFXIII-A stood at 2 fold.
